± gives the uncertainty stated by the source.
B1: Membrane-associated guanylate kinase, WW and PDZ domain-containing protein 2, residues 601 to 682; numbered along this chain, Q86UL8 (parent)
chain: AELMTLTIVKGAQGFGFTIADSPTGQRVKQILDIQGCPGLCEGDLIVEINQQNVQNLSHTEVVDILKDCPIGSETSLIIHRG

Variants of: B1
Assay: abundance fitness (aPCA) (normalised: wild type 0, dead -1); higher = more abundant; growth selection in yeast, the domain comes from the species named
Details: Homo sapiens

| Variant | abundance fitness |
| --- | --- |
| S58T | -0.135 ± 0.095 |
| S58Y | -0.226 ± 0.26 |
| S58R | -0.119 ± 0.075 |
| S58C | 0.052 ± 0.11 |
| S58W | -0.021 ± 0.12 |
| S58D | -0.183 ± 0.17 |
| S58N | -0.007 ± 0.23 |
| S58V | -0.093 ± 0.079 |
| S58K | -0.236 ± 0.17 |
| S58Q | -0.057 ± 0.092 |
| S58F | -0.29 ± 0.16 |
| S58G | 0.015 ± 0.1 |
| S58E | -0.065 ± 0.092 |
| S58P | -0.174 ± 0.088 |
| D44L | -1.27 ± 0.3 |
| D44Q | -0.567 ± 0.16 |
| D44T | -0.95 ± 0.26 |
| D44E | -0.874 ± 0.22 |
| D44S | -0.618 ± 0.12 |
| D44A | -0.263 ± 0.11 |
| D44Y | -0.71 ± 0.2 |
| D44H | -0.79 ± 0.31 |
| D44G | -0.859 ± 0.11 |
| D44N | -0.21 ± 0.1 |

| Variant | abundance fitness |
| --- | --- |
| D44M | -0.572 ± 0.24 |
| D44C | -0.989 ± 0.28 |
| Q51M | -0.042 ± 0.047 |
| Q51I | -0.269 ± 0.048 |
| Q51F | -0.063 ± 0.041 |
| Q51V | -0.088 ± 0.042 |
| Q51A | -0.012 ± 0.043 |
| Q51H | -0.016 ± 0.041 |
| Q51P | -0.749 ± 0.07 |
| Q51N | 0.045 ± 0.044 |
| Q51D | -0.024 ± 0.05 |
| Q51W | -0.09 ± 0.055 |
| Q51C | -0.067 ± 0.059 |
| Q51K | -0.024 ± 0.042 |
| Q51S | -0.018 ± 0.038 |
| Q51L | -0.064 ± 0.029 |
| Q51E | -0.013 ± 0.063 |
| Q51T | 0.005 ± 0.039 |
| N56L | -0.051 ± 0.069 |
| N56M | -0.06 ± 0.11 |
| N56C | -0.326 ± 0.22 |
| N56R | -0.036 ± 0.052 |
| N56Q | -0.099 ± 0.12 |
| N56E | 0.221 ± 0.23 |

| Variant | abundance fitness |
| --- | --- |
| N56W | 0.197 ± 0.28 |
| N56K | -0.046 ± 0.095 |
| N56F | -0.099 ± 0.25 |
| N56T | -0.03 ± 0.11 |
| N56A | -0.076 ± 0.071 |
| N56Y | 0.074 ± 0.42 |
| N56V | -0.128 ± 0.094 |
| N56P | 0.072 ± 0.1 |
| N56S | -0.053 ± 0.1 |
| N56G | 0.003 ± 0.079 |
| V47K | -0.195 ± 0.16 |
| V47A | 0.036 ± 0.082 |
| V47E | 0.004 ± 0.12 |
| V47Q | 0.033 ± 0.26 |
| V47W | -0.09 ± 0.11 |
| V47N | -0.291 ± 0.39 |
| V47C | -0.066 ± 0.09 |
| V47G | -0.164 ± 0.063 |
| V47S | -0.09 ± 0.069 |
| V47R | -0.018 ± 0.073 |
| V47F | 0.185 ± 0.38 |
| V47I | -0.165 ± 0.11 |
| V47D | -0.161 ± 0.33 |
| V47Y | -0.337 ± 0.18 |

| Variant | abundance fitness |
| --- | --- |
| N50F | -0.71 ± 0.48 |
| N50H | 0.024 ± 0.13 |
| N50K | -0.011 ± 0.12 |
| N50S | -0.03 ± 0.068 |
| N50Y | -0.386 ± 0.27 |
| N50R | -0.068 ± 0.057 |
| N50W | -0.433 ± 0.15 |
| N50T | -0.455 ± 0.15 |
| N50C | -0.71 ± 0.43 |
| N50G | -0.058 ± 0.064 |
| N50M | -0.108 ± 0.1 |
| N50E | 0.013 ± 0.16 |
| N50V | -0.626 ± 0.17 |
| N50D | -0.084 ± 0.23 |
| N50L | -0.219 ± 0.1 |
| E48L | -0.114 ± 0.079 |
| E48C | -0.145 ± 0.1 |
| E48R | -0.103 ± 0.056 |
| E48W | -0.158 ± 0.12 |
| E48Q | -0.098 ± 0.17 |
| E48D | -0.444 ± 0.23 |
| E48M | -0.144 ± 0.2 |
| E48H | 0.091 ± 0.43 |
| E48Y | 0.006 ± 0.26 |

| Variant | abundance fitness |
| --- | --- |
| E48S | -0.004 ± 0.089 |
| E48T | -0.226 ± 0.18 |
| E48I | -0.871 ± 0.47 |
| E48V | -0.086 ± 0.087 |
| E48K | -0.117 ± 0.11 |
| E48A | -0.193 ± 0.094 |
| Q52S | -0.037 ± 0.037 |
| Q52T | -0.018 ± 0.038 |
| Q52I | 0.038 ± 0.051 |
| Q52K | 0.049 ± 0.048 |
| Q52W | -0.095 ± 0.049 |
| Q52V | -0.039 ± 0.039 |
| Q52L | -0.072 ± 0.03 |
| Q52R | -0.007 ± 0.037 |
| Q52F | -0.054 ± 0.045 |
| Q52H | -0.029 ± 0.043 |
| Q52N | 0.017 ± 0.046 |
| Q52E | -0.016 ± 0.069 |
| Q52D | 0.027 ± 0.061 |
| Q52A | -0.037 ± 0.044 |
| Q52M | 0.01 ± 0.045 |
| Q52C | -0.052 ± 0.066 |
| Q52Y | -0.024 ± 0.05 |
| V54A | -0.053 ± 0.04 |

| Variant | abundance fitness |
| --- | --- |
| V54D | -0.964 ± 0.14 |
| V54H | -1.18 ± 0.15 |
| V54G | -0.523 ± 0.049 |
| V54K | -0.855 ± 0.1 |
| V54P | -0.806 ± 0.064 |
| V54W | -0.779 ± 0.11 |
| V54R | -0.939 ± 0.082 |
| V54I | -0.07 ± 0.04 |
| V54C | -0.086 ± 0.052 |
| V54T | -0.037 ± 0.035 |
| V54Y | -1 ± 0.12 |
| V54F | -0.867 ± 0.082 |
| V54S | -0.243 ± 0.034 |
| V54Q | -0.688 ± 0.064 |
| V54E | -0.906 ± 0.16 |
| V54L | -0.089 ± 0.029 |
| V62A | -0.079 ± 0.089 |
| V62R | -0.91 ± 0.14 |
| V62M | -0.181 ± 0.12 |
| V62T | -0.03 ± 0.13 |
| V62D | -0.985 ± 0.35 |
| V62Q | -0.336 ± 0.13 |
| V62H | -0.598 ± 0.35 |
| V62G | -1.07 ± 0.17 |

| Variant | abundance fitness |
| --- | --- |
| V62L | -0.114 ± 0.087 |
| V62W | -1.03 ± 0.4 |
| V62F | -0.345 ± 0.31 |
| V62C | 0.181 ± 0.29 |
| V62E | -0.999 ± 0.49 |
| E61L | -0.046 ± 0.071 |
| E61K | -0.137 ± 0.17 |
| E61T | -0.289 ± 0.14 |
| E61W | -0.374 ± 0.21 |
| E61I | -0.409 ± 0.32 |
| E61R | 0.002 ± 0.1 |
| E61A | -0.151 ± 0.094 |
| E61G | -0.036 ± 0.065 |
| E61C | -0.039 ± 0.11 |
| E61D | -0.005 ± 0.37 |
| E61S | -0.2 ± 0.12 |
| E61F | -0.381 ± 0.39 |
| E61H | -0.051 ± 0.15 |
| E61V | -0.132 ± 0.089 |
| E61M | 0.08 ± 0.28 |
| N53K | -0.021 ± 0.042 |
| N53L | -0.069 ± 0.03 |
| N53M | -0.043 ± 0.05 |
